Results published in patent US20150118233A1.

Key:
[1] = target: F protein of hRSV strain B-1 (hRSV strain B-1); assay: cell-based or functional assay
[2] = target: F protein of Long escape mutant R7C2/1 (K272E in antigenic site II) (hRSV strain Long escape mutant); assay: cell-based or functional assay
[3] = target: F protein of hRSV strain Long (hRSV strain Long); assay: cell-based or functional assay
[4] = target: F protein of Long escape mutant R7C2/11 (antigenic site II) (hRSV strain Long escape mutant); assay: cell-based or functional assay
[5] = target: F protein of hRSV strain A-2 (hRSV strain A-2); assay: cell-based or functional assay
[6] = target: hRSV FTM- NN protein (membrane anchorless form of the Long fusion protein, 70 kDa) (hRSV strain Long); assay: SPR (Biacore T100), FTM- NN amine-coupled, 1:1 Langmuir fit
[7] = target: hRSV FTM- NN protein (membrane anchorless form of the Long fusion protein, 70 kDa) (hRSV strain Long); assay: Alphascreen competition: FTM- NN (0.3 nM) bridged by biotinylated Synagis Fab and 101F Fab acceptor beads

Chain of F protein of hRSV strain B-1 (hRSV strain B-1) (chain, as listed by the source limits assumed): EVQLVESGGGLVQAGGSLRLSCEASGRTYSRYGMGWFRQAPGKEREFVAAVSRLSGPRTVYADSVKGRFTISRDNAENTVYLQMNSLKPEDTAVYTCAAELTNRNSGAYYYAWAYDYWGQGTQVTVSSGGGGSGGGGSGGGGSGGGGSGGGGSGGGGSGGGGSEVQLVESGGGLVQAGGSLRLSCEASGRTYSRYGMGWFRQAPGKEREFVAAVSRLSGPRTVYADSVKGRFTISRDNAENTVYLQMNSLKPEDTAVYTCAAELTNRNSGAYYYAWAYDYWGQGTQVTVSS
Chain of F protein of Long escape mutant R7C2/1 (K272E in antigenic site II) (hRSV strain Long escape mutant) (chain, as listed by the source): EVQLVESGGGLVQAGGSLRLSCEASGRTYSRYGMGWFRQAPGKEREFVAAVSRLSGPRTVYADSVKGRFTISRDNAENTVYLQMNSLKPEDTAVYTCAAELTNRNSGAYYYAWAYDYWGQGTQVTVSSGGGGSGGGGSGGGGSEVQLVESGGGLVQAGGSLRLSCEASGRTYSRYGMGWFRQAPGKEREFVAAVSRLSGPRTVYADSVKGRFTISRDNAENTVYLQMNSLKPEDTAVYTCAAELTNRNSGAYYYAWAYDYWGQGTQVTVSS
Chain of F protein of hRSV strain A-2 (hRSV strain A-2) (chain, as listed by the source limits assumed): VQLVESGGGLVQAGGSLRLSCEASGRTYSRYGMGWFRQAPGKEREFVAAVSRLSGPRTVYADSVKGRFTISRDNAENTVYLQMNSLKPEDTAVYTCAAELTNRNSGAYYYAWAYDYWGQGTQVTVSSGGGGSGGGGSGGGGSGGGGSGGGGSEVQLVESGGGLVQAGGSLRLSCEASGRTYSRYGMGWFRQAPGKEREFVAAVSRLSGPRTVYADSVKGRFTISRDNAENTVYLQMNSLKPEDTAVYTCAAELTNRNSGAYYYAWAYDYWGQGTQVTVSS

Substance | Neutralization IC50 (first assay) [1] [nM] | Neutralization IC50 (second assay) [1] [nM] | RSV neutralization IC50 [1] [nM] | neutralization of escape mutant virus, IC50 [2] [nM] | Neutralization IC50 (first assay) [3] [nM] | Neutralization IC50 (second assay) [3] [nM] | RSV neutralization IC50 [3] [nM] | neutralization of escape mutant virus, IC50 [4] [nM] | RSV neutralization IC50 [5] [nM] | Kd [6] [nM] | koff [6] [s⁻¹] | kon [6] [M⁻¹ s⁻¹] | IC50 [7] [nM]
Synagis® (Palivizumab, humanized monoclonal antibody) | 2.1 | 2.9 | 1.7 | > 200 | 7.3 | 6 | 4 | > 200 | 2.5 | 0.64 | 0.00018 | 280000 | 
Numax Fab (Motavizumab or MEDI-524) |  |  |  |  |  |  |  |  |  |  |  |  | 0.086
101F Fab |  |  |  |  |  |  |  |  |  |  |  |  | 1.12
